The target in this data set is T1, rOmpR (OmpR-6xHis) (Klebsiella pneumoniae ATCC43816?) (UniProt A6TF28).
T1 sequence: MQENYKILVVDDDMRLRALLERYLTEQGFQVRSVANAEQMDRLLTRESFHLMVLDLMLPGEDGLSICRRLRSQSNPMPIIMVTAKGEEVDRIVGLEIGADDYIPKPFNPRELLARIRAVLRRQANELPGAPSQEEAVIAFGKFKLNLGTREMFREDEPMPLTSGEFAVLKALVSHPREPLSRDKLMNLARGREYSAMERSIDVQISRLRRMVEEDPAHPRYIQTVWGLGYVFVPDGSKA
Description: EMSA.

For the sequence “ACAGAACGCTGAAATGCACGGAAAGTTGTCCGTTGGAAAATAATTAAACATTTATTCACTATTTTGCTACTTATTGTTTGAAATCACGGGGCGTCACCGTATAATTTGTCCGCTTTTTGATGCTTGACTCTTCGTCTTAAAGGACGTTTTATACGACACGCGACATACCTCAAAGGGAGCAGG (double strand) [Patp2]”, the binding entry is listed as “no binding”.

The values above are taken from PMC10269446.
